Test results from US20250333513A1 (Immunocore, published 2025).

How the values were obtained:
[1] = biological target: T1, extracellular region of human PD-1 (human, UniProt Q15116 25-170); test: method not given
T1 construct: also called extracellular domain of human PD-1

[2] = biological target: T1, extracellular region of human PD-1; test: method not given; lower end of the printed range 50-70 nM

T1 sequence (Q15116 25-170 limits assumed): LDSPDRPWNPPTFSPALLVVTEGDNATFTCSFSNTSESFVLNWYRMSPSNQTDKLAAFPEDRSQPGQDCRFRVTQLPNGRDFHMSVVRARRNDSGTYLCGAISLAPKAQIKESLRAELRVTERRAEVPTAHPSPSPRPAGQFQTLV

B1: PD-1 agonist VHH (camelid PD-1 agonist VHH) (VHH)
VHH: EVQLVESGGALVQPGGSLRLSCAASGFTFSSYAMTWVRQAPGKGPEWVSAIASDGASTSYLDSVKGRFTVSRDNAKNTLYLQMNSLKPEDTAVYYCARGGYLTYDRYGQGTQVTVSS
notes: also called PD-1 VHH domain; PD-1 VHH antibody
**Q.** What does the source list for B1?
**A.** binding half-life [1]: 15 to 20 s; Kd [2]: 50 to 70 nM
